Patent publication CN108218984A (ZHUHAI TRINOMAB BIOTECHNOLOGY CO LTD; GUANGZHOU TAINUODI …, dated 2018)

Target: 破伤风标准毒素 (破伤风毒素蛋白) (Clostridium tetani, UniProt P04958 2-1315)
Sequence (P04958 2-457 limits assumed, chain 1 of 2): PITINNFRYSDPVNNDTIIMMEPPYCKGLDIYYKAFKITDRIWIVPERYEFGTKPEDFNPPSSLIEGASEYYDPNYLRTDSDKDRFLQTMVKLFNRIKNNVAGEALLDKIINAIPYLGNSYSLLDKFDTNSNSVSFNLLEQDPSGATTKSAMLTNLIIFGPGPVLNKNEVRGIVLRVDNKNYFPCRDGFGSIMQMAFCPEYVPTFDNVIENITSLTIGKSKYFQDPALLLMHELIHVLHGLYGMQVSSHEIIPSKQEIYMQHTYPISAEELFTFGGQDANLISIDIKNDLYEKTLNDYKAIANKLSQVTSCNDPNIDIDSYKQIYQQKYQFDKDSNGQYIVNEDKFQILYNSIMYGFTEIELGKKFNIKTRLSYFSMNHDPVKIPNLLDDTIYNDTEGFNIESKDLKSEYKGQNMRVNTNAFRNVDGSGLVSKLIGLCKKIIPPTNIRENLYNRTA
Sequence (P04958 458-1315 limits assumed, chain 2 of 2): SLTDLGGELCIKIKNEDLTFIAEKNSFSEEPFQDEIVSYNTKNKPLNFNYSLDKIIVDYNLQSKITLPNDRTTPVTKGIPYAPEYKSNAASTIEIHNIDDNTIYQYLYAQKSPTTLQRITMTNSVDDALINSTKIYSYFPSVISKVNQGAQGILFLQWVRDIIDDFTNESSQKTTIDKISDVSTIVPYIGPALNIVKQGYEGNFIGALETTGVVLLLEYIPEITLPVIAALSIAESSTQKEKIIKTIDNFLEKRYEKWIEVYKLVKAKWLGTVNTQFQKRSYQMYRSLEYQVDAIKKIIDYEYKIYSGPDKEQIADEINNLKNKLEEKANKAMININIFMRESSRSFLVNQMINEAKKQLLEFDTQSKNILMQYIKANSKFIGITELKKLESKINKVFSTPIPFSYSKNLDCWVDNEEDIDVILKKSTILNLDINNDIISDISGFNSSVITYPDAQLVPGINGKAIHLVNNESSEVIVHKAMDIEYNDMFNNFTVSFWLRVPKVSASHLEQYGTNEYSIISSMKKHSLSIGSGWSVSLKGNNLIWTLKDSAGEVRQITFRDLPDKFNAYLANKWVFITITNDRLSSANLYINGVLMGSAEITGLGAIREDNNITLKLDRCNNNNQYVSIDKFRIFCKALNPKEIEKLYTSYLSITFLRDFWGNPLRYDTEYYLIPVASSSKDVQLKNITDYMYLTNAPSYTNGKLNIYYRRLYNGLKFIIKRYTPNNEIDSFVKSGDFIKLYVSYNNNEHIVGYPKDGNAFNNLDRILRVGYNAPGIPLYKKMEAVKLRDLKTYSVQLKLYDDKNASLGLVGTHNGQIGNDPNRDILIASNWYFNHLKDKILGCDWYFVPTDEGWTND

B1: TRN0011抗体 (全人源抗破伤风毒素中和抗体) (antibody, V domains shown)
VH: QVQLQESGAGLVKPSETLSLTCGVAGGPFTGSYLSWIRQPPGKGLEWIGEVSQSGSTSYNPSLKSRVTISVDTSKSQFSLKLSSVTAADTAVYYCARLTKHYINSAYWGQGTLVTVSS
VL: DIQMTQSPSILSASVGDRVTITCRASQIIGSWLAWYQQKPGKAPTLVIYKASRLDSGVPSRFSGTESGTEFTLTISSLQPDDFATYYCQQYNSYPYTFGQGTKLEIK
For B1, which Kd is on record?
The Kd was 0.905 nM.

What about the koff of the same binder?
Its koff is 3.87e-05 s⁻¹.

And the kon?
Its kon is 42700 M⁻¹ s⁻¹.
